Patent publication US9145555B2, “Integrated—ligand-responsive microRNAs” (California Institute of Technology, priority 2009, dated 2015)

Tested on: transcript encoding the green fluorescent protein (GFP) in HEK 293 cells stably expressing GFP
Assay: Cell culture assay for miRNA activity (GFP silencing, transient transfection, flow cytometry)
Format: cell-based, human
Details: for GFP silencing: single copy, absence of ligand; for response of GFP levels to theophylline: transient transfection with varying theophylline concentrations; for response of GFP levels to tetracycline: 100 μM tetracycline; for response of GFP levels to hypoxanthine: 5 mM hypoxanthine
Excerpt: To examine the relationship between bulge size in the basal segments and gene silencing, we developed a general cell culture assay for miRNA activity (FIG. 1D). miRNAs designed to target a transcript encoding the green fluorescent protein (GFP) were inserted into the 3′ untranslated region (UTR) of a constitutively-expressed transcript encoding the fluorescent protein DsRed-Express. Plasmid DNA encoding the DsRed-Express construct was transfected into HEK 293 cells stably expressing GFP. The level of miRNA-mediated gene silencing was determined by flow cytometry analysis, where DsRed-Express levels were used to distinguish between transfected and untransfected cells. Using the cell culture assay, miRNAs with the same bulges as in the in vitro experiments were tested for silencing efficiency. […] Therefore, proper Drosha processing and gene silencing correlate with the size of the bulge in the miRNA basal segments.
293 and Flp-In-293 cells were maintained in DMEM supplemented with 10% FBS at 37° C. in a 5% CO2—humidified incubator. Transient transfections were conducted with Fugene 6 (Roche) according to the manufacturer's instructions one day after seeding. Immediately prior to transfection, the media was supplemented with the appropriate ligand at the specified concentration. Ligand concentrations were selected to maximize the regulatory response without severely compromising cell viability over the course of the transient assays. The media was replaced two days post-transfection. Three days post-transfection, the cells were trypsinized and subjected to flow cytometry analysis on a Cell Lab Quanta SC MPL (Beckman Coulter) and the resulting data was analyzed using the Flowjo software (Tree Star). Cells were initially gated for viability by electronic volume and side scatter. GFP and DsRed fluorescence of viable cells were measured through a 525 nm and […] band pass filter, respectively, after excitation with a 488 nm laser. Moderate to high DsRed levels served as a transfection control to gate between transfected and untransfected cells. Transfected cells could be distinguished from untransfected cells with this method even when four miRNAs were present in the 3′ UTR of the DsRed-Express encoding transcript (data not shown). GFP levels were calculated as the median fluorescence of the transfected population divided by that of the untransfected population (Beisel et al., 2008). This normalization approach corrected for the bias from pleiotropic effects associated with each small molecule. All ratios were normalized such that the value for DsRed-Express lacking a miRNA under the same conditions was set to 100%.

With `Cn1c(=O)c2c(ncn2C)n(C)c1=O` [caffeine, reference compound] the “response of GFP silencing to caffeine” value (1 mM caffeine, miRNAs th1 and wt) was “insensitive”.

B1: xa1: SEQ ID NO. 31; GFP-targeting miRNA with the binding core of the xanthine aptamer (nucleic acid)
chain: TCTAGAACGGGTCCGTGTATTACCTGAGCGAGCACAAGCTGGAGTACAACTATAGTGAAGCCACAGATGTATAGTTGTACTCCAGCTTGTGCCCGCCTAGGTCGACGGGCCC
modifications: expressed or natural sequence
With B1 the GFP silencing was “completely abolished silencing”.

B2: wt: SEQ ID NO. 18; GFP-targeting miRNA with basal segments similar to the natural miRNA miR-30a, control (nucleic acid)
chain: TCTAGAGTTTGACAGTGAGCGAGCACAAGCTGGAGTACAACTATAGTGAAGCCACAGATGTATAGTTGTACTCCAGCTTGTGCCTGCCTACTGCCTCGGACTGAATTCATAGGGCC
For B2, the GFP silencing was “silence GFP with comparable strength” and the “response of GFP levels to theophylline” value was “insensitive to theophylline”.

B3: tc1: SEQ ID NO. 30; GFP-targeting miRNA harboring the tetracycline aptamer (nucleic acid)
chain: TCTAGAACGGGTCCTAAAACATACCGTGAGCGAGCACAAGCTGGAGTACAACTATAGTGAAGCCACAGATGTATAGTTGTACTCCAGCTTGTGCCTGCCTACGGAGAGGTGAAGAATACGACCACCTAGGGCCC
modifications: miRNA
notes: 30; GFP-targeting miRNA harboring the tetracycline aptamer
In the case of B3, the “response of GFP levels to tetracycline” value is reported as “tetracycline-dependent increase in GFP levels” and the GFP silencing is reported as “down-regulated GFP”.

B4: xa2: SEQ ID NO. 32; GFP-targeting miRNA with xanthine aptamer binding core and loop, inverted (nucleic acid)
chain: TCTAGAACGGGTCCGAGGTCGACGTGAGCGAGCACAAGCTGGAGTACAACTATAGTGAAGCCACAGATGTATAGTTGTACTCCAGCTTGTGCCCGCCTACGTGTATTACCCAGGGCCC
modifications: expressed or natural sequence
For B4, the “response of GFP levels to hypoxanthine” value was “hypoxanthine-dependent increase in GFP levels” and the GFP silencing was “substantial GFP silencing”.

B5: m1: SEQ ID NO. 19; GFP-targeting control miRNA with a large bulge in the basal segments, no aptamer (nucleic acid)
chain: TCTAGAACGGGAAGTAATTACAGTGAGCGAGCACAAGCTGGAGTACAACTATAGTGAAGCCACAGATGTATAGTTGTACTCCAGCTTGTGCCTGCCTACTGCCACATAGGGCCC
In the case of B5, the “response of GFP levels to hypoxanthine” value is reported as “no effect”.

B6: m2: SEQ ID NO. 20; GFP-targeting control miRNA with varied bulge size, no aptamer (nucleic acid)
chain: TCTAGAACGGGAAACACAGTGAGCGAGCACAAGCTGGAGTACAACTATAGTGAAGCCACAGATGTATAGTTGTACTCCAGCTTGTGCCTGCCTACTGCCTCGGGCCC
With B6 the “response of GFP levels to tetracycline” value was “negligible tetracycline dependence”.

B7: th2: SEQ ID NO. 25; th1 altered to target a different location in the GFP transcript (nucleic acid)
chain: TCTAGAACGGGTCCTGATACCAGCGTGAGCGCCAAGAAGATGGTGCGCTCCTGGAGTGAAGCCACAGATGTCCAGGAGCGCACCATCTTCTTGTCGCCTACGCCCTTGGCAGCAGGGCCC
modifications: expressed or natural sequence
notes: 25; th1 altered to target a different location in the GFP transcript
In the case of B7, the GFP silencing is reported as “preserved silencing” and the “response of GFP levels to theophylline” value is reported as “preserved silencing and the theophylline response”.

B8: th1′: SEQ ID NO. 24; theophylline-responsive non-targeting miRNA, scrambled mature miRNA sequence (nucleic acid)
chain: TCTAGAACGGGTCCTGATACCAGCGTGAGCGAGCACAAGCTATCAACATGAGGTAGTGAAGCCACAGATGTACCTCATGTTGATAGCTTGTGCCCGCCTACGCCCTTGGCAGCAGGGCCC
In the case of B8, the GFP silencing is reported as “abolished silencing” and the “GFP silencing versus miRNA copy number” value (up to four copies separated by 112 nt spacer) is reported as “no effect on GFP levels”.
